Test results reported in patent EP4725966A1, “HUMAN EPIDERMAL GROWTH FACTOR 3 ANTIBODY, PREPARATION METHOD THEREFOR, AND USE THEREOF” (priority 2023, dated 2024).

Assays:
[1] = system: A375 cells overexpressing human HER3; test: ADC cytotoxicity, CellTiter-Glo; type: cell-based; details: Example 21, FIG. 13
[2] = system: HER3-overexpressing A375 cells; test: Cell imaging of internalization; type: cell-based; details: 100 nM, FIG. 11
Method: A cell imaging microplate detection system was used to monitor the internalization of hHE4-G1W, hHE4-G1W-DXd, patritumab, and patritumab-DXd after binding to HER3 on the surface of A375 tumor cells. hHE4-G1W, hHE4-G1W-DXd, patritumab, and patritumab-DXd (each 100 nM) were incubated with HER3-overexpressing A375 cells at 4°C for 30 minutes, respectively. Unbound antibodies were removed by washing, and PE-labeled goat anti-human Fc secondary antibody (Jackson) was added. The mixture was incubated at 4°C for 30 minutes, and then the unbound secondary antibody was removed by washing. When the antibodies were bound to the surface of A375 cells and had not yet undergone internalization, these samples were designated as the 0h samples. Fluorescence images were acquired using a Biotek Cytation 1 imaging reader. Cells were then incubated at 37°C for 3 hours and imaged again.

[3] = system: HER3-expressing HCC1569 cells; test: ADC cytotoxicity; type: cell-based; details: FIG. 13
Method: (§1) A375 and OVCAR3 cells were seeded in 96-well plates at 5,000 cells per well, and gradient-diluted ADCs (cHE4-G1W-DXd, cHE5-G1W-DXd, cHE7-G1W-DXd, patritumab-DXd, and IgG-DXd) were added. After incubation at 37°C for 5 days, cell viability was measured using CellTiter-Glo (Promega) to evaluate cytotoxicity of the ADCs.
(§2) The cytotoxicity of antibody-drug conjugates based on hHE4-G1W against HER3-expressing HCC1569, A375, and JIMT-1 tumor cells was tested. Antibody-drug conjugates were prepared as described in Example 11. Hydrophobic interaction chromatography indicated the antibody-to-Dxd ratios for cHE4-G1W-DXd, hHE4-G1W-DXd, patritumab-DXd, and negative control IgG-DXd were 1:7, 1:8, 1:7.8, and 1:8, respectively.

[4] = system: human HER3-overexpressing JIMT-1 cells; test: ADC cytotoxicity; type: cell-based; details: FIG. 13
Method: as §1, §2

SW620 tumor = test: Tumor inhibition in SW620 tumor-bearing mice; type: in vivo, Female SCID mice; details: for tumor growth: single dose, FIG. 14
Method: (§3) The anti-tumor efficacy of hHE4-G1W-DXd and cHE5-G1W-DXd was evaluated in SW620 tumor-bearing mice. Female SCID mice were subcutaneously injected with SW620 cells in the dorsal region to establish the xenograft model. After tumor establishment, mice were randomly divided into nine groups and treated with a single dose. Three groups served as negative controls: one group received PBS, and two groups received IgG-DXd at low dose (3 mg/kg) and high dose (6 mg/kg), respectively. Experimental groups were administered with hHE4-G1W-DXd, cHE5-G1W-DXd, or patritumab-DXd at 3 mg/kg or 6 mg/kg. The average Dxd-to-antibody ratio was 8. Mouse body weights and tumor volumes were measured.

DiFi tumor = test: Tumor inhibition in DiFi tumor-bearing mice; type: in vivo, Female SCID mice
Method: as §3, with “DiFi” for “SW620”, “once per week for three weeks.” for “with a single dose.”

B1: hHE4-G1W-DXd (conjugate)
heavy: QVQLVESGGGLVKPGGSLRLSCAASGFTFSSYVMSWVRQAPGKGLEWVATISDGDSSTYYADSVKGRFTISRDNAKNSLYLQMNSLRAEDTAVYYCARDKGHGYDEGAFVYWGQGTLVTVSS
light: DIQMTQSPSSLSASVGDRVTITCRASENIYSYLAWYQQKPGKAPKLLIYNAKTLAEGVPSRFSGSGSGTDFTLTISSLQPEDFATYYCQNHYGTPYTFGQGTKLEIKR
modifications: left off: a dimerising Fc or GST
[1]
  cytotoxicity against A375 cells: significant cytotoxicity
[2]; 0 hour
  binding to HER3 on the surface of A375 cells: bound to HER3 expressed on the cell surface
[2]; after 3 hours at 37°C
  internalization into A375 cells: internalized into the A375 cells
[3]
  cytotoxicity against HCC1569 cells: significant cytotoxicity
[4]
  cytotoxicity against JIMT-1 cells: significant cytotoxicity
[4]; JIMT-1 cells
  cytotoxicity compared with patritumab-DXd: superior cytotoxicity compared with patritumab-DXd
SW620 tumor; 3 mg/kg
  tumor growth: prevented tumor growth
SW620 tumor; 6 mg/kg
  tumor growth: complete tumor regression in one mouse
SW620 tumor; overall conclusion, SW620
  tumor inhibition compared with patritumab-DXd: superior tumor inhibition against SW620 tumor compared with patritumab-DXd
DiFi tumor; low dose of 3 mg/kg, once per week for three weeks
  tumor inhibition compared with patritumab-DXd: superior tumor inhibition compared with patritumab-DXd
DiFi tumor; overall conclusion, DiFi
  tumor inhibition compared with patritumab-DXd: equivalent or improved tumor inhibition against DiFi tumors compared with patritumab-DXd
